Target: 5,6-TAMRA-labeled short BMAL1 TAD (residues 594-626), wild type (mouse)
Assay: fluorescence polarisation

Chain of mouse CRY1 photolyase homology region (PHR, residues 1-491) (P97784 1-491): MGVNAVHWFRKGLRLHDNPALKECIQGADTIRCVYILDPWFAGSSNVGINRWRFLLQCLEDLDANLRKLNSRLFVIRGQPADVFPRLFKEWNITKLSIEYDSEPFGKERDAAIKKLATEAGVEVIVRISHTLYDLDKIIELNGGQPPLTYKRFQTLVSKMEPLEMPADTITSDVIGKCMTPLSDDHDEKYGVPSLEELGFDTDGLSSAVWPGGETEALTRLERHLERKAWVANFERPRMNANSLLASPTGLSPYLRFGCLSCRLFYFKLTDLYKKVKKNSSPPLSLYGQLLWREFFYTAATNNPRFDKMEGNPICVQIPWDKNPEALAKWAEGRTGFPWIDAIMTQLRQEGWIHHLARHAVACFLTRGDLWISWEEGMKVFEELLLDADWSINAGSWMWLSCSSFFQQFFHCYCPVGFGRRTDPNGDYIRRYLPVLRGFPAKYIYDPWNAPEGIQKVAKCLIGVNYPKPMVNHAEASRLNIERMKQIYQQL

- Kd: 900 nM
Substance: mouse CRY1 photolyase homology region (PHR, residues 1-491) (from UniProt P97784 1-491) (domain or fragment)
